Data from patent US10047402B2, “RASAL1 is a major tumor suppressor gene in thyroid cancer” (THE JOHNS HOPKINS UNIVERSITY, priority 2013, dated 2018).
Entries after “also recorded” stand apart in the source; their conditions may differ.

Columns and labels:
[1] = tested on: thyroid cancer cell lines; experiment: Demethylation (MSP) and re-expression (RT-PCR) of RASAL1 after 5-Aza-dC treatment; type: cell-based, human; conditions: for demethylation of RASAL1 (MSP analysis): thyroid cancer cell lines, 5 μM 5-Aza-dC for 24 hours
Experimental: FIG. 2. Hypermethylation of RASAL1 and its re-expression induced by demethylation in thyroid cancer cells. […] After cells were treated with 5 μM 5-Aza-dC for 24 hours, RNA and genomic DNA were extracted and used for reverse-transcription polymerase chain reaction (RT-PCR) and MSP analysis, respectively. C) RT-PCR analysis of RASAL1 expression in thyroid cancer cell lines treated with or without demethylating agent 5-Aza-dC. D) MSP analysis of RASAL1 in matched normal and cancerous thyroid tissues. Six matched sample pairs are presented that had different methylation patterns between normal and matched tumor tissues. E) RASAL1 methylation levels represented by the indicated allelic methylation percentages (x-axis) and their frequencies (y-axis) in different types of thyroid cancers. ATC=anaplastic thyroid cancer; FTC=follicular thyroid cancer; PTC=papillary thyroid cancer.
DNA bisulfate treatment was performed as previously described (29). See Table 3 for MSP primer sequences. The relative level of methylation was normalized using the ratio obtained from the values of the gene of interest over the values of the internal reference gene (β-actin). The relative methylation level was calculated by the formula [M/(M+U)]×100%, in which M and U represent the density of the methylation and unmethylation band, respectively. Results represent the percentage of allelic methylation of the tumor.
RNA extraction and semi-quantitative RT-PCR were performed as previously described (Liu et al., 13(4) CLIN. CANCER RES. 1341-49 (2007)). Normal human thyroid RNA samples (Stratagene, La Jolla, Calif.) were used as the control. The RT-PCR primers are presented Table 3.

[2] = tested on: MAPK and PI3K signaling pathways (pERK, pAkt) in thyroid cancer cell lines; experiment: Western blotting of ERK and Akt phosphorylation after RASAL1 expression; type: cell-based, human; conditions: for pERK and pAkt levels: acute expression; for pERK and pAKT: stable expression
[3] = tested on: thyroid cancer cell lines; experiment: Colony formation in monolayer culture after transient RASAL1 transfection; type: cell-based, human; conditions: transient reintroduction, compared with control vector; six of seven thyroid cancer cell lines tested
C643 cells = experiment: Anchorage independent colony formation, stable transfection; type: cell-based, human; conditions: C643, stably transfected; n=3; control vector 92.67±18.15; P=0.03
KAT18 cells = experiment: as above; type: cell-based, human; conditions: KAT18, stably transfected; n=3; control vector 81.67±16.29; P=0.05
WRO cells = experiment: Colony formation in soft agar, stable transfection; type: cell-based, human
Description: FIG. 5. Examination of the effects of reintroduction of RASAL1 on RAS signaling and growth of thyroid cancer cells. A) A representative result of Western blotting analysis of RASAL1 expression and phosphorylation of ERK and Akt as well as other related proteins as indicated in various thyroid cancer cell lines that harbor different genetic alterations. B) A representative result of colony formation of thyroid cancer cells in monolayer culture after transfection of plasmids with or without insertion of RASAL1 cDNA followed by drug selection for 2 weeks. Cell colonies were stained with crystal violet. Scale bar=1 cm. C) Western blotting analysis of RASAL1 expression and phosphorylation of ERK and Akt and related proteins as indicated in three selected thyroid cancer cell lines stably transfected with RASAL1. D) Bar graph presentation of the colony numbers (mean±standard deviation) from three experiments for cells stably transfected with empty vectors or RASAL1 as in (C). Only cell colonies containing more than 50 cells were included.
(§1) FIG. 6. […] Scale bar=100 μm. […] Scale bar=100 μm.
Colony formation assays were performed as described previously (Liu et al., 92(6) J. CLIN. ENDOCRINOL. METAB. 2264-71 (2007)). […] Surviving colonies were counted after staining with crystal violet. […] After 3-4 weeks of culture, colonies were photographed and colony number was counted under a microscope.

K1 cells = experiment: Colony formation with doxycycline-inducible RASAL1 expression; type: cell-based, human; conditions: Dox-induced expression, control (no Dox) 86.00±8.54, P=0.006
Experimental: as §1
Colony formation assays were performed as described previously (Liu et al., 92(6) J. CLIN. ENDOCRINOL. METAB. 2264-71 (2007)). For colony formation in monolayer culture, transfected cells (1×10^5 cells/well) were inoculated into a […], and 24-h later cells were selected with blasticidin (2 μg/mL) for 2 weeks. Surviving colonies were counted after staining with crystal violet. For colony formation in soft agar, cells (5×10^3 cells/well) were plated in RPMI 1640 containing 10% FBS and 0.33% agar in 12-well plates. After 3-4 weeks of culture, colonies were photographed and colony number was counted under a microscope.
RASAL1 cDNA, which was amplified from normal thyroid (Stratagene, La Jolla, Calif.) and tagged with c-myc epitope, was inserted into a modified lenti-virus vector that was derived from plenti6/V5-DEST (Invitrogen, Grand Island, N.Y.). The virus packaging and cell infection were performed as described previously (Liu et al., 18 CANCER RES. 7311-19 (2009)). To construct the plasmid for doxycycline-inducible expression of RASAL1, the CMV promoter in the modified plenti6/V5-DEST plasmid was replaced with the Xho I-EcoR V fragment of plasmid pUHG10-3 (Gossen et al., 89(12) PROC. NATL. ACAD. SCI. USA 5547-51 (1992)), which contained hCMV minimal promoter with heptamerized upstream tet-operators. […]

[4] = tested on: RAS (RAS-GTP) in WRO cells; experiment: RAS pull-down (RAS activation) assay with ATP stimulation; type: cell-based, human; conditions: WRO cells stably transfected; ATP treatment
Experimental: as §1
The protocol for cell treatment was as described previously (Walker et al., 23(8) EMBO J. 1749-60 (2004)). Briefly, cells were serum starved for 2 h in serum-free medium at 24 h post-transfection of wild-type H-RAS. Cells were then treated with 50 μM ATP for 1 min. A RAS activation assay kit (Cell Biolabs, San Diego, Calif.) was used to assess RAS activity. After treatment, cells were washed twice with ice-cold PBS and then lysed in 1 mL of assay lysis buffer. After centrifugation at 14,000×g for 10 min at 4° C., cell lysates were incubated at 4° C. for 1 h with 40 μL of the RAF1 RAS-binding domain-agarose beads. The beads were pelleted and washed three times with assay lysis buffer, and then resuspended in 2× reducing SDS-PAGE sample buffer. The quantities of activated RAS (RAS-GTP) were analyzed by Western blotting using anti-RAS monoclonal antibody.

[5] = tested on: K1 cell-derived xenograft tumors; experiment: Xenograft tumor formation in nude mice
Description: The procedures for the construction of doxycycline (Dox)-inducible expression device for RASAL1 and transfection of K1 cells are as described in the Materials and Methods section below. […] Each time point represents the average±standard deviation of the values obtained from four mice in each group. Two-tailed paired Student t test was used to compare tumor sizes at week 5. H) Photographs of the tumors that were surgically removed from mice in each group after they were killed at the end of 5 weeks from the cell inoculation. I) Weight of individual tumors surgically removed from the animals in each group corresponding to (H). The average weight of the tumors from each group is indicated with a short horizontal bar.
The animals' care was in accord with the guidelines of Johns Hopkins Medical Institutions. K1 cells stably transfected with doxcycycline-inducible wild-type RASAL1 or RASAL1 mutants constructed as described above were injected (1×10^7 cells/mouse) subcutaneously into flanks of female nude mice at the age of 4 weeks (Harlan Sprague Dawley, Indianapolis, Ind.). Mice were fed vehicle or 0.2 mg/mL doxycycline, which was stored in a 0.5% sucrose solution in light-proof bottles, beginning when the tumor grew to a size of 2 mm at 1.5 weeks after the inoculation of cells. Tumor size was measured, and volume was calculated using the formula (length×width2)/2. After 5 weeks, mice were sacrificed, and tumors were surgically removed, photographed, and weighed.

For `Nc1ncn([C@H]2C[C@H](O)[C@@H](CO)O2)c(=O)n1` [5-Aza, 5-aza-2-deoxycytidine], the “RASAL1 expression (RT-PCR)” value ([1]; in six of the eight thyroid cancer cell lines tested, 5 μM for 24 hours) was “restored its expression”, the “demethylation of RASAL1 (MSP analysis)” value [1] was “induced demethylation of RASAL1” and the “demethylation of RASAL1 (MSP analysis)” value ([1]; listed as 5-Aza-dC) was “Partial demethylation”.

B1: RASAL1: RASAL1 cDNA from normal thyroid, c-myc tagged, in lenti-virus vector, expressed in thyroid cancer cells; RasGAP tumor suppressor protein (protein, UniProt O95294 1-804, looked up)
RasGAP-activating-like …: MAKSSSLNVRVVEGRALPAKDVSGSSDPYCLVKVDDEVVARTATVWRSLGPFWGEEYTVHLPLDFHQLAFYVLDEDTVGHDDIIGKISLSREAITADPRGIDSWINLSRVDPDAEVQGEICLSVQMLEDGQGRCLRCHVLQARDLAPRDISGTSDPFARVFWGSQSLETSTIKKTRFPHWDEVLELREMPGAPSPLRVELWDWDMVGKNDFLGMVEFSPKTLQQKPPKGWFRLLPFPRAEEDSGGNLGALRVKVRLIEDRVLPSQCYQPLMELLMESVQGPAEEDTASPLALLEELTLGDCRQDLATKLVKLFLGRGLAGRFLDYLTRREVARTMDPNTLFRSNSLASKSMEQFMKLVGMPYLHEVLKPVISRVFEEKKYMELDPCKMDLGRTRRISFKGALSEEQMRETSLGLLTGYLGPIVDAIVGSVGRCPPAMRLAFKQLHRRVEERFPQAEHQDVKYLAISGFLFLRFFAPAILTPKLFDLRDQHADPQTSRSLLLLAKAVQSIGNLGQQLGQGKELWMAPLHPFLLQCVSRVRDFLDRLVDVDGDEAGVPARALFPPSAIVREGYLLKRKEEPAGLATRFAFKKRYVWLSGETLSFSKSPEWQMCHSIPVSHIRAVERVDEGAFQLPHVMQVVTQDGTGALHTTYLQCKNVNELNQWLSALRKASAPNPNKLAACHPGAFRSARWTCCLQAERSAAGCSRTHSAVTLGDWSDPLDPDAEAQTVYRQLLLGRDQLRLKLLEDSNMDTTLEADTGACPEVLARQRAATARLLEVLADLDRAHEEFQQQERGKAALGPLGP
modifications: c-myc tag
notes: RASAL1 cDNA from normal thyroid, c-myc tagged, in lenti-virus vector, expressed in thyroid cancer cells; RasGAP tumor suppressor protein
B1 was tested, and the “pERK and pAkt levels” value ([2]; BCPAP cells (BRAF mutation)) was “only reduced pAKT but not pERK”, the “pERK and pAkt levels” value ([2]; C643 cells (RAS mutation)) was “No effect was observed; also recorded: no effect on pERK and pAKT” and the “pERK and pAkt levels” value ([2]; FTC-133 cells (PTEN mutation)) was “reduced pERK but not pAKT”. The “pERK and pAkt levels” value ([2]; Hth7 cells (RAS mutation)) was “No effect was observed”, the “pERK and pAkt levels” value ([2]; KAT18 cells (wild-type RAS, BRAF, PIK3CA, PTEN)) was “decreased both pERK and pAkt levels” and the “pERK and pAKT” value ([2]; KAT18 cells) was “inhibition of pERK and pAKT was observed”. The “pERK and pAkt levels” value ([2]; SW1736 cells (BRAF mutation)) was “No effect was observed”, the “pERK and pAkt levels” value ([2]; TPC1 cells (RET-PTC1 rearrangement)) was “no effect” and the “pERK and pAkt levels” value ([2]; WRO cells (wild-type RAS, BRAF, PIK3CA, PTEN)) was “decreased both pERK and pAkt levels”. The “pERK and pAKT” value ([2]; WRO cells) was “inhibition of pERK and pAKT was observed”, the “cell colony growth in monolayer culture” value [3] was “dramatically inhibited cell colony growth” and the colony number (C643 cells) was 55.33±9.71. The colony number (KAT18 cells) was 54.00±6.56, the colony number (WRO cells; WRO cell pools, wild-type vs mutants experiment, vector 52.00±9.54, P=0.009) was 24.00±7.81 and the colony number (WRO cells; WRO, stably transfected, n=3, control vector 48.00±13.45, P=0.03) was 21.67±6.35. For the same molecule, the colony number (K1 cells) was 40.33±6.03, the “effect on activation of RAS and increase in pAKT and pERK stimulated by ATP” value [4] was “suppressed the activation of RAS and the increase in pAKT and pERK” and the “effect on tumor growth” value ([5]; doxycycline-induced expression in K1 xenografts) was “statistically significant inhibitory effect”. For the same molecule, the tumor weight ([5]; doxycycline-induced expression, after 5 weeks, without induction 1.01±0.54, P=0.047) was 0.66 ± 0.53 g and the tumor volume ([5]; doxycycline-induced expression, week 5, without induction 0.94±0.52, P=0.02) was 0.49±0.4 cm3.
